Results reported in article PMC7935746.

What was measured:
[1] = biological target: His-tagged TriC transporter (Pseudomonas aeruginosa); experiment: SEC
[2] = biological target: His-tagged TriC transporter (Pseudomonas aeruginosa); experiment: cryo-EM structure

Substance | stoichiometry N [1] | stoichiometry N [2]
His-tagged TriC transporter (natural protein) | 3 | 3
fused TriAB dimer (TriA and TriB on one polypeptide) | 1 | –
